Source: publication PMC12302338, “Functional genomics and structural insights into maize aldo-keto reductase-4 family: Stress metabolism and substrate specificity in embryos” (The Journal of Biological Chemistry, 2025)

How the values were obtained:
Experiment in all cases: purified protein
Settings in all cases: 0.25 mM NADPH, 50 mM sodium phosphate pH 7.0, 30 °C, reduction
purified protein [1] = substrate: O=CC(O)CO
purified protein [2] = substrate: CC(=O)C=O; type: biochemical, Zea mays
purified protein [3] = substrate: O=Cc1ccc([N+](=O)[O-])cc1; type: biochemical, Zea mays

B1: ZmAKR4C13 (Zea mays) (protein)
chain: MASAQAVGQGERGHFVLKSGHTIPAVGLGTWRAGSDTAHSVRTAIAEAGYRHVDTAAQYGVEKEVGRGLKAAMEGGINRKDLFVTSKLWCTELAPDRVRPALEKTLKDLQLDYLDLYLIHWPFRLKDGAHMPPEAGEVLEFDMEGVWREMEGLVKDGLVKDIGVCNYTVAKLNRLMRSANVPPAVCQMEMHPGWKNDRIFEACKKHGIHVTAYSPLGSSEKNLAHDPLVEKVANKLDKTPGQVLLRWALQRGTSVIPKSTRDERIKENIQVFGWEIPEEDFRALCGIKDEKRVLTGEELFVNKTHGPYKSATEVWDHED
notes: monomer
Question: What does the source list for B1?
Answer: Km (purified protein [1]): 1460 ± 290 µM; kcat (purified protein [1]): 18 s⁻¹; kcat/Km (purified protein [1]): 12400 M⁻¹ s⁻¹; Km (purified protein [2]): 940 ± 80 µM; kcat (purified protein [2]): 2.21 s⁻¹; kcat/Km (purified protein [2]): 2350 M⁻¹ s⁻¹; Km (purified protein [3]): 100 ± 20 µM; kcat (purified protein [3]): 0.65 s⁻¹; kcat/Km (purified protein [3]): 6510 M⁻¹ s⁻¹
